Measurements as given in patent US11255842B2, “Methods for detecting neutralizing antibodies to parathyroid hormone (PTH) and parathyroid hormone-related peptide (PTHRP) analog” (Radius Health, Inc., priority 2019, dated 2022).
Blank lines part the entries; values can stand above or below the substance they belong to.

Assays:
[1] = in vivo; cited from earlier work
PTH1R [2] = target: T1, PTH1R (Rattus norvegicus, UniProt P25961); assay: PTH dose response, cAMP induction in UMR-106 cells in 25% pooled human serum; assay type: cell-based; conditions: interpolated from curve fit, rounded
T1 construct: any cells that express PTH1R and allows the induction of cAMP signaling; host or cells: UMR-106 rat osteosarcoma cells
T1 sequence (P25961 27-591): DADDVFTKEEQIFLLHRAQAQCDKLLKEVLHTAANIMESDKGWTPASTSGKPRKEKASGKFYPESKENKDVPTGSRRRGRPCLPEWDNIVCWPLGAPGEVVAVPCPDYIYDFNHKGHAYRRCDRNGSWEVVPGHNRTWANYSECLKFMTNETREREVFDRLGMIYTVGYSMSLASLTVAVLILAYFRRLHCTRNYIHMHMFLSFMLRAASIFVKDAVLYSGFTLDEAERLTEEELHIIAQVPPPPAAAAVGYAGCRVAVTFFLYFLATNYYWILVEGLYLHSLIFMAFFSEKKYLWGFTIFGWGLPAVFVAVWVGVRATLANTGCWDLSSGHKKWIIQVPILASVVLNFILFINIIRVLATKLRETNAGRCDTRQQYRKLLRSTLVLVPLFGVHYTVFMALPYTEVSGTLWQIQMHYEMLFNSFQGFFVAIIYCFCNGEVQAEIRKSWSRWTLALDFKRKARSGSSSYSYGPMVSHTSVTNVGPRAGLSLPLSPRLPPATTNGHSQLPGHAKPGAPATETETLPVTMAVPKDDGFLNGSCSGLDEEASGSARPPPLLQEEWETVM
Description: (§1) UMR-106 cells are maintained in growth medium (UMR-GM, Dulbecco's Modified Eagle's Medium (DMEM) containing 10% Fetal Bovine Serum, 1% Pen-Strep (10 k units Penicillin—10 k ug/mL Streptomycin) and 1% L-glutamine) in 75-150 cm^2 tissue culture flasks until ready for use. Cells are split at a ratio between 1:4 and 1:20 when growth reaches ≥70% confluence for routing culture maintenance. Prior to initiating an assay, cells are plated in sub-culturing flasks (25 cm^2 to 150 cm^2) at a density of 10^6 cells/5 cm^2 (example 5e6 cells for T-75). The following day, flasks are starved with assay medium (UMR-Am, Phenol Red-Free DMEM, containing 1% Bovine Serum Albumin). The following day validation samples and antibody controls are pre-incubated with PTH peptide for a minimum of 30 minutes. The validation samples and controls are adjusted such that the final assay concentration of serum is equal to the assay minimum required dilution of 1:4. Twenty microliters of samples and/or controls are placed on a MSD cAMP assay plate. […] Forty microliters of the cell suspension are added to the cAMP assay plate. […] One hundred microliters of 2×MSD Read Buffer T are then added to the plates and plates are read immediately on an MSD 6000 or 56000 Sector Imager. […]

PTH1R [3] = target: T1, PTH1R; assay: PTHrP dose response, cAMP induction in UMR-106 cells; assay type: cell-based; conditions: interpolated from curve fit, rounded
Description: as §1, with “PTHrP” for “PTH peptide”, “S6000” for “56000”

Substance: Abaloparatide: parathyroid hormone-related peptide (PTHrP) (1-34) analog which acts as a PTH1 receptor (PTH1R) agonist
- antibody-positive patients who developed neutralizing antibodies to Abaloparatide [1]: 68%
- patients who developed anti-Abaloparatide antibodies [1]: 49%
- patients who developed cross-reactivity to PTHrP [1]: 2.3%
- patients who developed cross-reactivity to parathyroid hormone (PTH) [1]: 0%
- patients who developed neutralizing antibodies to PTHrP [1]: 43%

- EC20 of the PTH response (PTH1R [2]): 0.728 ng/mL
- EC30 of the PTH response (PTH1R [2]): 0.436 ng/mL
Substance: PTH: Parathyroid Hormone Peptide (1-34)(Human), Phoenix Pharmaceuticals P/N 055-08

- EC20 of the PTHrP response (PTH1R [3]): 0.728 ng/mL
- EC30 of the PTHrP response (PTH1R [3]): 0.436 ng/mL
Substance: PTHrP: PTHrP (1-34)(Human, Rat, Mouse) peptide, Phoenix Pharmaceuticals P/N 056-04
